The values that follow are results of earlier work, collected in US20240247069A1, “FGFR3 BINDING MOLECULES AND METHODS OF USE THEREOF” (Regeneron Pharmaceuticals, Inc., priority 2023, published 2024).

The data set concerns FGFR3.
Setting [1] is: literature antibodies, sequences from cited PCT publications.
The mark [2] stands for this setting: Table T-3, exemplary FGFR3 D3 binding sequences from cited PCT publications.

Like-named read-outs stand apart in the source and are kept apart here.

B1: VH: SEQ ID NO: 7 of PCT Publication No: WO 2010/048026 A2: unnamed anti-FGFR3 Ig-like domain 2 antibody of WO 2010/048026 A2; VH SEQ ID NO:61, VL SEQ ID NO:62 (antibody, V domains shown)
VH: EVQLVQSGAEVKKPGASVKVSCKASGYMFTSYGISWVRQAPGQGLEWMGWVSTYNGDTNYAQKFQGRVTVTTDTSTSTAYMELRSLRSEDTAVYYCARVLGYYDSIDGYYYGMDVWGQGTTVTVSS
VL: QSVLTQPPSLSVAPGKTATFTCGGNNIGDKSVHWYRQKPGQAPVLVMYLDTERPSGIPERMSGSNFGNTATLTITRVEAEDEADYYCQVWDSGSDHVVFGGGTKLTVLG
For B1, under setting [1], the Activity result is “Antagonistic”.

B2: 4E7(7D12): anti-FGFR3 domain 3 antibody of WO 2010/002862 A2; VH SEQ ID NO:56, VL SEQ ID NO:54 (antibody, V domains shown)
VH: EIQLQQSGPELVKPGASVKVSCKASGYAFTSYNMYWVKQSHGKSLEWIGYIDPYNGGTRYNQKFKGKATLTVDKSSSTAYMHLNSLTSEDSAVYYCAREGGNYEAWFAYWGQGTLVTVSA
VL: QIVLTQSPALMSASPGEKVTMTCSASSSVSYMYWYQQKPRSSPKPWIYLTSNLASGVPARFSGSGSGTSYSLTISSMEAEDAATYYCQQWSSNPLTFGAGTKLELK
In the case of B2, the Activity result is, setting by setting: under setting [2], “Antagonistic”; under setting [1], “Antagonistic”.

B3: 184.6.1.N54S: anti-FGFR3 Ig-like domain 3 antibody of WO 2010/111367 A1; VH SEQ ID NO:63, VL SEQ ID NO:64 (antibody, V domains shown)
VH: EVQLVESGGGLVQPGGSLRLSCAASGFTFTSTGISWVRQAPGKGLEWVGRIYPTSGSTNYADSVKGRFTISADTSKNTAYLQMNSLRAEDTAVYYCARARTYGIYDLYVDYTEYVMDYWGQGTLV
VL: DIQMTQSPSSLSASVGDRVTITCRASQDVDTSLAWYQQKPGKAPKLLIYSASFLYSGVPSRFSGSGSGTDFTLTISSLQPEDFATYYCQQSTGHPQTFGQGTKVEIKR
Take B3: the Activity result was “Antagonistic” under setting [2] and “Antagonistic” under setting [1].

B4: 184.6.62: anti-FGFR3 Ig-like domain 3 antibody of WO 2010/111367 A1; VH SEQ ID NO:67, VL SEQ ID NO:68 (antibody, V domains shown)
VH: EVQLVESGGGLVQPGGSLRLSCAASGFTFSTTGISWVRQAPGKGLEWVARIYPLYGSTHYADSVKGRFTISADTSKNTAYLQMNSLRAEDTAVYYCARARTYGIYDLYVDYTEYVMDYWGQGTLV
VL: DIQMTQSPSSLSASVGDRVTITCRASQDVSTAVAWYQQKPGKAPKLLIYSASFLYSGVPSRFSGSGSGTDFTLTISSLQPEDFATYYCQQTYTTSLTFGQGTKVEIKR
Turning to B4, the Activity result is “Antagonistic” under setting [2] and “Antagonistic” under setting [1].

B5: 184.6.58: anti-FGFR3 Ig-like domain 3 antibody of WO 2010/111367 A1 (aka R3Mab); VH SEQ ID NO:65, VL SEQ ID NO:66; comparator REGN6331 (antibody, V domains shown)
VH: EVQLVESGGGLVQPGGSLRLSCAASGFTFTSTGISWVRQAPGKGLEWVARIYPTNGSTNYADSVKGRFTISADTSKNTAYLQMNSLRAEDTAVYYCARARTYGIYDLYVDYTEYVMDYWGQGTLV
VL: DIQMTQSPSSLSASVGDRVTITCRASQDVDISLAWYQQKPGKAPKLLIYSASFLYSGVPSRFSGSGSGTDFTLTISSLQPEDFATYYCQQGAGNPYTFGQGTKVEIKR
notes: anti-FGFR3 Ig-like domain 3 antibody of WO 2010/111367 A1 (aka R3Mab); comparator REGN6331
Consider B5, for which the Activity result by setting is: under setting [2], “Antagonistic”; under setting [1], “Antagonistic”.

B6: 184.6.1.NS D30E: anti-FGFR3 Ig-like domain 3 antibody of WO 2010/111367 A1; VH SEQ ID NO:63, VL SEQ ID NO:69 (antibody, V domains shown)
VH: EVQLVESGGGLVQPGGSLRLSCAASGFTFTSTGISWVRQAPGKGLEWVGRIYPTSGSTNYADSVKGRFTISADTSKNTAYLQMNSLRAEDTAVYYCARARTYGIYDLYVDYTEYVMDYWGQGTLV
VL: DIQMTQSPSSLSASVGDRVTITCRASQDVETSLAWYQQKPGKAPKLLIYSASFLYSGVPSRFSGSGSGTDFTLTISSLQPEDFATYYCQQSTGHPQTFGQGTKVEIKR
As for B6, the Activity entry runs as follows: under setting [2], “Antagonistic”; under setting [1], “Antagonistic”.

B7: B-701: anti-FGFR3 antibody of WO 2016/134234 A1; VH SEQ ID NO:70, VL SEQ ID NO:71 (antibody, V domains shown)
VH: EVQLVESGGGLVQPGGSLRLSCAASGFTFTSTGISWVRQAPGKGLEWVGRIYPTSGSTNYADSVKGRFTISADTSKNTAYLQMNSLRAEDTAVYYCARTYGIYDLYVDYTEYVMDYWGQGTLV
VL: DIQMTQSPSSLSASVGDRVTITCRASQDVDTSLAWYKQKPGKAPKLLIYSASFLYSGVPSRFSGSGSGTDFTLTISSLQPEDFATYYCQQSTGHPQTFGQGTKVEIKR
As to B7, the Activity result under setting [1] was “Antagonistic”.

B8: 20B4: anti-FGFR3 domain 3 antibody of WO 2010/002862 A2; VH SEQ ID NO:57, VL SEQ ID NO:58 (antibody, V domains shown)
VH: EIQLQQSGPELVKPGASVKVSCKASGYSLTDYNMYWVKQSHGKSLEWIGYIDPYNGGTSYNQKFKGKATLTVDKSSSTAFMHLNSLTSEDSAVYYCARSLGPDFDYWGQGTTLTVSS
VL: QIVLTQSPAIMSASPGEKVTMTCSASSSVNYMHWYQQKSGTSPKRWIYDTSKLASGVPARFSGSGSGTSYSLTISSMEAEDTATYYCQQWNSNPLTFGAGTKLELK
With B8, the Activity entry is “Antagonistic” under setting [2] and “Antagonistic” under setting [1].

B9: Hu15D8: anti-FGFR3 domain 3 antibody of WO 2010/002862 A2; VH SEQ ID NO:59, VL SEQ ID NO:60 (antibody, V domains shown)
VH: EVQLVQSGAEVKKPGESLKISCKGSGYSFTSYNMYWVRQMPGKGLEWMGYIDPYNGGTSYNQKFKGKATLTVDKSISTAYLQWSSLKASDTAMYYCAREGGNYEAWFAYWGQGTLVTVSS
VL: DIQLTQSPSSLSASVGDRVTITCSASSSVSYMYWFQQKPGKAPKPLIYLTSYLASGVPSRFSGSGSGTDFTLTISSLQPEDFATYYCQQWSSYPLTFGGGTKVEIK
For B9, the Activity result reads like this: under setting [2], “Antagonistic”; under setting [1], “Antagonistic”.

B10: MS-Pro-59: anti-FGFR3 Ig-like domain 3 antibody of WO 2002/102972 A2; VH SEQ ID NO:28, VL SEQ ID NO:29 (antibody, V domains shown)
VH: QVQLQQSGPGLVKPSQTLSLTCAISGDSVSSNSAAWNWIRQSPGRGLEWLGRTYYRSKWYNDYAVSVKSRITINDTSKNQFSLQLNSVTPEDTAVYYCARSYYPDFDYWGQGTVTVSS
VL: DIELTQPPSVSVAPGQTARISCSGDALGDKYASWYQQKPGQAPVLVIYDDSDRPSGIPERFSGSNSGNTATLTISGTQAEDEADYYCQSYDGPDLWVFGGGTKLTVLGQ
Turning to B10, the Activity entry runs as follows: under setting [2], “Antagonistic”; under setting [1], “Antagonistic”.
